# Reference: patent EP4201483A1 (Eberhard-Karls-Universität Tübingen, dated 2023)
# Target: T1, human heat shock protein Hsp90α (human, UniProt P07900 2-732)
# T1 construct: Target protein of the dot blot assay
# Experiment: dot blot assay, direct interaction with Hsp90α
binder,measurement,value
DEIVKELRSRYNIST [SNC1 (15aa)],binding result,no binding
